Data on 1 substance can be found in PMC7939481.

This assay deals with human CaV2.1 (P/Q-type) voltage-gated calcium channel (human).

On to “human G-protein Gβ1γ2 heterodimer (from UniProt P62873-1 1-340; P59768 1-71) (complex)”, for which the τ activation of hCaV2.1 macroscopic current with co-expressed human Gβ1γ2, after a +150 mV prepulse is 3.26 ms and the τ activation of hCaV2.1 macroscopic current with co-expressed human Gβ1γ2, without prepulse (1.16-1.20 ms without G proteins) is 10.6 ms.
